Experimental data published in patent US20220177594A1 (ZOETIS SERVICES, published 2022).
Numbering of substitutions follows the chain as printed.

B1: Mu_02D09_VH (SEQ ID NO: 31)_D31A (antibody, V domains shown)
VH: EVQLVESGGGLVKPGGSLTLSCAASGFTFSAYGMHWLRQAPEKGLEWVAYISSGSRAVFFADTVKGRFTISRDNAKNTLFLQMTSLRSDDTAMYYCARDRYDGRGFAYWGQGTLVTVSA
VL: DIVLTQSPATLSVTPGDSVSLSCRASQSISNNLHWYQQTSHESPRLLITYASQSISGIPSRFSGSGSGTDFTLSINSVETEDFGMYFCQQSNSWPLTFGAGTKLELKR
B2: Mu_02D09_VH (SEQ ID NO: 31)_S52A (antibody, V domains shown)
VH: B1 VH with A31D, S52A
VL: B1 VL
B3: Mu_02D09_VH (SEQ ID NO: 31)_Y32A (antibody, V domains shown)
VH: B1 VH with A31D, Y32A
VL: B1 VL
B4: Mu_02D09_VH (SEQ ID NO: 31)_H35A (antibody, V domains shown)
VH: B1 VH with A31D, H35A
VL: B1 VL
B5: Mu_02D09_VL (SEQ ID NO: 33)_S56A (antibody, V domains shown)
VH: B1 VH with A31D
VL: B1 VL with S56A
B6: Mu_02D09_VL (SEQ ID NO: 33)_I29A (antibody, V domains shown)
VH: B1 VH with A31D
VL: B1 VL with I29A
B7: Mu_02D09_VH (SEQ ID NO: 31)_R104A (antibody, V domains shown)
VH: B1 VH with A31D, R104A
VL: B1 VL
B8: Mu_02D09_VH (SEQ ID NO: 31)_Y50A (antibody, V domains shown)
VH: B1 VH with A31D, Y50A
VL: B1 VL
B9: Mu_02D09_VL (SEQ ID NO: 33)_Q27A (antibody, V domains shown)
VH: B1 VH with A31D
VL: B1 VL with Q27A
B10: Mu_02D09_VH (SEQ ID NO: 31)_Y101A (antibody, V domains shown)
VH: B1 VH with A31D, Y101A
VL: B1 VL
B11: Mu_02D09_VL (SEQ ID NO: 33)_W94A (antibody, V domains shown)
VH: B1 VH with A31D
VL: B1 VL with W94A
B12: Mu_02D09_VL (SEQ ID NO: 33)_L96A (antibody, V domains shown)
VH: B1 VH with A31D
VL: B1 VL with L96A
B13: Mu_02D09_VH (SEQ ID NO: 31)_G33A (antibody, V domains shown)
VH: B1 VH with A31D, G33A
VL: B1 VL
B14: Mu_02D09_VH (SEQ ID NO: 31)_D62A (antibody, V domains shown)
VH: B1 VH with A31D, D62A
VL: B1 VL
B15: Mu_02D09_VH (SEQ ID NO: 31)_D102A (antibody, V domains shown)
VH: B1 VH with A31D, D102A
VL: B1 VL
B16: Mu_02D09_VH (SEQ ID NO: 31)_D99A (antibody, V domains shown)
VH: B1 VH with A31D, D99A
VL: B1 VL
B17: Mu_09E09_VH (SEQ ID NO: 35)_S35A (antibody, V domains shown)
VH: DVKLVESGEGLVKPGGSLKLSCAASGFTFSSYAMAWVRQTPEKRLEWVAYISSGGDYIYYADTVKGRFTISRDNARNTLYLQMSSLKSEDTAMYYCTRDPITGTFAYWGQGTLVTVSA
VL: DLQMTQTTSSLSASLGDRVTISCRASQDINNYLNWYQQKPDGTVKLLIYYTSTLHSGVPSRFSGSGSGTDYSLTISNLEQEDIATYFCQQGNTLPWTFGGGTKLEIKR
B18: Mu_09E09_VL (SEQ ID NO: 37)_N92A (antibody, V domains shown)
VH: B17 VH with A35S
VL: B17 VL with N92A
B19: Mu_09E09_VL (SEQ ID NO: 37)_L94A (antibody, V domains shown)
VH: B17 VH with A35S
VL: B17 VL with L94A
B20: Mu_09E09_VL (SEQ ID NO: 37)_G91A (antibody, V domains shown)
VH: B17 VH with A35S
VL: B17 VL with G91A
B21: Mu_10F07_VH (SEQ ID NO: 39)_D99A (antibody, V domains shown)
VH: B17 VH with A35S, A49T, I58F, D99A
VL: B17 VL with L2I, N30T, Y71F, N92H, T93M
B22: Mu_09E09_VH (SEQ ID NO: 35)_Y57A (antibody, V domains shown)
VH: B17 VH with A35S, Y57A
VL: B17 VL
B23: Mu_09E09_VH (SEQ ID NO: 35)_Y50A (antibody, V domains shown)
VH: B17 VH with A35S, Y50A
VL: B17 VL
B24: Mu_09E09_VH (SEQ ID NO: 35)_T102A (antibody, V domains shown)
VH: B17 VH with A35S, T102A
VL: B17 VL
B25: Mu_09E09_VL (SEQ ID NO: 37)_Y50A (antibody, V domains shown)
VH: B17 VH with A35S
VL: B17 VL with Y50A
B26: Mu_09E09_VH (SEQ ID NO: 35)_F105A (antibody, V domains shown)
VH: B17 VH with A35S, F105A
VL: B17 VL
B27: Mu_09E09_VH (SEQ ID NO: 35)_D99A (antibody, V domains shown)
VH: B17 VH with A35S, D99A
VL: B17 VL
B28: Mu_09E09_VH (SEQ ID NO: 35)_I101A (antibody, V domains shown)
VH: B17 VH with A35S, I101A
VL: B17 VL
B29: Mu_09E09_VH (SEQ ID NO: 35)_Y59A (antibody, V domains shown)
VH: B17 VH with A35S, Y59A
VL: B17 VL
B30: Mu_09E09_VL (SEQ ID NO: 37)_N34A (antibody, V domains shown)
VH: B17 VH with A35S
VL: B17 VL with N34A
B31: Mu_09E09_VH (SEQ ID NO: 35)_P100A (antibody, V domains shown)
VH: B17 VH with A35S, P100A
VL: B17 VL
B32: Mu_09E09_VL (SEQ ID NO: 37)_Q90A (antibody, V domains shown)
VH: B17 VH with A35S
VL: B17 VL with Q90A
B33: Mu_09E09_VL (SEQ ID NO: 37)_W96A (antibody, V domains shown)
VH: B17 VH with A35S
VL: B17 VL with W96A
B34: Mu_09E09_VL (SEQ ID NO: 37)_Y32A (antibody, V domains shown)
VH: B17 VH with A35S
VL: B17 VL with Y32A

Target: T1, ANTIBODY EXPRESSION CONTROL
T1 construct: also called mouse anti-canine antibody (capture reagent of the expression control ELISA)
Assay: SPR Biacore, expression control
Protocol: The affinity with which candidate mAbs bind canine, feline, and human (SEQ ID NO: 122; Human_OSMR) (R&D Systems, Minneapolis, Minn.) OSMR was determined using surface plasmon resonance (SPR) on a Biacore system (Biacore Life Sciences (GE Healthcare), Uppsala, Sweden). To avoid affinity differences associated with differential surface preparation that can occur when immobilizing antibodies to surfaces; OSMR from each species was directly conjugated to individual surfaces. Immobilization was obtained by amine coupling 5 μg/mL OSMR using N-hydroxysuccinimide (NHS)/1-Ethyl-3-(3-dimethylaminopropyl) carbodiimide (EDC) chemistry. Chips were quenched with ethanolamine and the affinity with which all candidate mAbs bound to the immobilized OSMR was evaluated. All curves were fit to a 1:1 model. […] Results for affinity measurements are described herein.
Data from an ELISA represents an equilibrium state where the antibody is allowed to associate and dissociate over a one-hour period resulting in steady-state binding. Using Biacore, the target protein is immobilized to a surface and the antibody is passed over this surface in a mobile liquid phase. Protein-protein interaction is determined from changes in the surface resonance which allows for calculation of association (kₐ), disassociation (kd), and affinity constant (KD). While not wishing to be bound to one hypothesis we present data from ELISA and Biacore experiments, using the same preparation of antibody, that may result in agreement between the two methods with respect to binding but also may show contradictory results due to the nature of the binding kinetics and different assay dynamics. The data presented in Table A (in combination with experimental results from yeast display mutational analysis in Example 21) allow for the definition of a structure:function relationship to be defined between the anti-OSMR antibodies described here and their ability to bind and block IL-31 and OSM-mediated signaling through the OSMR receptor.

| Kd | koff | kon | Binder |
| --- | --- | --- | --- |
| 0.0685 nM | 8.32e-05 s⁻¹ | 1.21e+06 M⁻¹ s⁻¹ | B1 |
| 0.0233 nM | 7.55e-06 s⁻¹ | 323000 M⁻¹ s⁻¹ | B2 |
| 0.366 nM | 4.43e-05 s⁻¹ | 121000 M⁻¹ s⁻¹ | B3 |
| 0.803 nM | 0.000112 s⁻¹ | 139000 M⁻¹ s⁻¹ | B4 |
| 0.844 nM | 0.000111 s⁻¹ | 132000 M⁻¹ s⁻¹ | B5 |
| 0.714 nM | 9.47e-05 s⁻¹ | 133000 M⁻¹ s⁻¹ | B6 |
| 0.229 nM | 2.41e-05 s⁻¹ | 105000 M⁻¹ s⁻¹ | B7 |
| 0.00259 nM | 3.68e-07 s⁻¹ | 142000 M⁻¹ s⁻¹ | B8 |
| 1.2 nM | 0.00019 s⁻¹ | 158000 M⁻¹ s⁻¹ | B9 |
| 0.28 nM | 4.11e-05 s⁻¹ | 147000 M⁻¹ s⁻¹ | B10 |
| 0.0977 nM | 3.16e-05 s⁻¹ | 323000 M⁻¹ s⁻¹ | B11 |
| 0.0659 nM | 2.43e-05 s⁻¹ | 370000 M⁻¹ s⁻¹ | B12 |
| 0.0225 nM | 7.35e-06 s⁻¹ | 327000 M⁻¹ s⁻¹ | B13 |
| 0.0019 nM | 2.45e-07 s⁻¹ | 129000 M⁻¹ s⁻¹ | B14 |
| 0.547 nM | 7.4e-05 s⁻¹ | 135000 M⁻¹ s⁻¹ | B15 |
| 1.63 nM | 0.000384 s⁻¹ | 235000 M⁻¹ s⁻¹ | B16 |
| 0.18 nM | 5.34e-05 s⁻¹ | 297000 M⁻¹ s⁻¹ | B17 |

| Kd | koff | kon | Binder |
| --- | --- | --- | --- |
| 0.257 nM | 7.59e-05 s⁻¹ | 296000 M⁻¹ s⁻¹ | B18 |
| 0.25 nM | 7.63e-05 s⁻¹ | 305000 M⁻¹ s⁻¹ | B19 |
| 0.306 nM | 8.96e-05 s⁻¹ | 292000 M⁻¹ s⁻¹ | B20 |
| 1.01 nM | 0.000118 s⁻¹ | 117000 M⁻¹ s⁻¹ | B21 |
| 0.208 nM | 6.34e-05 s⁻¹ | 305000 M⁻¹ s⁻¹ | B22 |
| 0.179 nM | 5.4e-05 s⁻¹ | 301000 M⁻¹ s⁻¹ | B23 |
| 0.172 nM | 5.33e-05 s⁻¹ | 311000 M⁻¹ s⁻¹ | B24 |
| 0.257 nM | 7.96e-05 s⁻¹ | 310000 M⁻¹ s⁻¹ | B25 |
| 0.138 nM | 4.66e-05 s⁻¹ | 338000 M⁻¹ s⁻¹ | B26 |
| 0.219 nM | 6.88e-05 s⁻¹ | 314000 M⁻¹ s⁻¹ | B27 |
| 0.172 nM | 5.4e-05 s⁻¹ | 314000 M⁻¹ s⁻¹ | B28 |
| 0.147 nM | 4.52e-05 s⁻¹ | 307000 M⁻¹ s⁻¹ | B29 |
| 0.317 nM | 8.91e-05 s⁻¹ | 281000 M⁻¹ s⁻¹ | B30 |
| 0.0786 nM | 2.35e-05 s⁻¹ | 300000 M⁻¹ s⁻¹ | B31 |
| 0.249 nM | 7.12e-05 s⁻¹ | 286000 M⁻¹ s⁻¹ | B32 |
| 0.345 nM | 9.76e-05 s⁻¹ | 283000 M⁻¹ s⁻¹ | B33 |
| 0.294 nM | 8.76e-05 s⁻¹ | 298000 M⁻¹ s⁻¹ | B34 |
